# Experimental data reported in patent US20110077204A1, “Agent for Targeted Drug Delivery To Cerebral Neurons” (Kagoshima University, priority 2006, published 2011).
# B1: glial cell line-derived neurotrophic factor (protein, UniProt P39905 78-211, looked up)
# Glial cell line-derived …: SPDKQMAVLPRRERNRQAAAANPENSRGKGRRGQRGKNRGCVLTAIHLNVTDLGLGYETKEELIFRYCSGSCDAAETTYDKILKNLSRNRRLVSDKVGQACCRPIAFDDDLSFLDDNLVYHILRKHSAKRCGCI
# notes: neurotrophic factor, literature report
# Columns and labels:
# brain neurons [1] = settings: rat, in vivo
# brain neurons [2] = settings: rat, in vivo; remark: listed apart in the source
# raphe nuclei = settings: in vivo; cited from earlier work
# brain parenchyma = settings: injected directly into the cerebrospinal fluid; cited from earlier work
molecule,measurement,setting,value
cholera toxin B-subunit [CTB],Non-specific infiltration through brain surface or ventricle surface,brain neurons [1],does not infiltrate indiscriminately through the brain surface or the ventricle surface
same,Uptake by cerebellar Purkinje cells,brain neurons [1],accumulated in the neurons of the raphe nuclei and Purkinje cells
same,"Uptake by other cell populations (cerebral neocortex, cerebral paleocortex, hypothalamus, thalamus, brainstem)",brain neurons [1],incorporated
same,Uptake by raphe nuclei neurons,brain neurons [1],accumulated in the neurons of the raphe nuclei and Purkinje cells
horseradish peroxidase [HRP],Detectable level of uptake of HRP label by neurons,brain neurons [2],not confirmed
cholera toxin,Appearance of label in raphe nuclei,raphe nuclei,the label appeared in the raphe nuclei
N=C(N)c1ccc(/C=C/c2ccc(C(=N)N)cc2O)cc1 [fluorogold],Appearance of label in raphe nuclei,raphe nuclei,the label appeared in the raphe nuclei
B1,Effect on dopaminergic condition,brain parenchyma,can improve the dopaminergic condition
same,Uptake by brain parenchyma,brain parenchyma,incorporated into brain parenchyma
